Experimental data as given in publication PMC9700037.

Target: His6-tev-DPP9 (UniProt Q86TI2)
Experiment: SEC-MALS; co-eluting SEC fractions of FIIND, DPP9 and free UPA co-expressed in Sf9 and co-purified; 0.5-1.0 mg/ml, Superose 6 increase (10/300) GL, buffer A without glycerol

Sequence of His6-tev-DPP9 (Q86TI2 whole entry): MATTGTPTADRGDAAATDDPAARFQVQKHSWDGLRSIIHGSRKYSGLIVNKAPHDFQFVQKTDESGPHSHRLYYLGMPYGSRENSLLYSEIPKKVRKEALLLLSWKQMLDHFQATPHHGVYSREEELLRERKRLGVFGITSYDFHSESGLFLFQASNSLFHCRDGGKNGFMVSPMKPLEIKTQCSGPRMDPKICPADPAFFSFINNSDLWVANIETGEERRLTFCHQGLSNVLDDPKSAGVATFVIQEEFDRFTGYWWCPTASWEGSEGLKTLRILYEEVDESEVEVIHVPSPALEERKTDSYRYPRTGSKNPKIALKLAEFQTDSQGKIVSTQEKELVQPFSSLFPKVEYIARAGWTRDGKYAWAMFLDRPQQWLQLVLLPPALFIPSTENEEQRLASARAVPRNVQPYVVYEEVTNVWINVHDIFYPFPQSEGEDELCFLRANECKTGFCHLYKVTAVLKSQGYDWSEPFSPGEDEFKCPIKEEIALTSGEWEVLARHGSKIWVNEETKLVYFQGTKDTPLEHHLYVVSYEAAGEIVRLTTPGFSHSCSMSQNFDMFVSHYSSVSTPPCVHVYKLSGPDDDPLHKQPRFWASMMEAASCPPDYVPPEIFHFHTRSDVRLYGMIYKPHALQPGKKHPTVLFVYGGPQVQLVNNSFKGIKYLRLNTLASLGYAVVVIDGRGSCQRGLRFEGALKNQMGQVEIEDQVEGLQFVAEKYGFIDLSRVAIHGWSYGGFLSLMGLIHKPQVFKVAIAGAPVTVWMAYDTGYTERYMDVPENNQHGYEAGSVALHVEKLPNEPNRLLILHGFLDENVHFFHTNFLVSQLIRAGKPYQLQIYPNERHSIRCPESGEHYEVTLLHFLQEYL
Sequence of free UPA domain (from the SUMO-UPA construct) (domain or fragment) (Q9C000 whole entry, the tested form may be a part): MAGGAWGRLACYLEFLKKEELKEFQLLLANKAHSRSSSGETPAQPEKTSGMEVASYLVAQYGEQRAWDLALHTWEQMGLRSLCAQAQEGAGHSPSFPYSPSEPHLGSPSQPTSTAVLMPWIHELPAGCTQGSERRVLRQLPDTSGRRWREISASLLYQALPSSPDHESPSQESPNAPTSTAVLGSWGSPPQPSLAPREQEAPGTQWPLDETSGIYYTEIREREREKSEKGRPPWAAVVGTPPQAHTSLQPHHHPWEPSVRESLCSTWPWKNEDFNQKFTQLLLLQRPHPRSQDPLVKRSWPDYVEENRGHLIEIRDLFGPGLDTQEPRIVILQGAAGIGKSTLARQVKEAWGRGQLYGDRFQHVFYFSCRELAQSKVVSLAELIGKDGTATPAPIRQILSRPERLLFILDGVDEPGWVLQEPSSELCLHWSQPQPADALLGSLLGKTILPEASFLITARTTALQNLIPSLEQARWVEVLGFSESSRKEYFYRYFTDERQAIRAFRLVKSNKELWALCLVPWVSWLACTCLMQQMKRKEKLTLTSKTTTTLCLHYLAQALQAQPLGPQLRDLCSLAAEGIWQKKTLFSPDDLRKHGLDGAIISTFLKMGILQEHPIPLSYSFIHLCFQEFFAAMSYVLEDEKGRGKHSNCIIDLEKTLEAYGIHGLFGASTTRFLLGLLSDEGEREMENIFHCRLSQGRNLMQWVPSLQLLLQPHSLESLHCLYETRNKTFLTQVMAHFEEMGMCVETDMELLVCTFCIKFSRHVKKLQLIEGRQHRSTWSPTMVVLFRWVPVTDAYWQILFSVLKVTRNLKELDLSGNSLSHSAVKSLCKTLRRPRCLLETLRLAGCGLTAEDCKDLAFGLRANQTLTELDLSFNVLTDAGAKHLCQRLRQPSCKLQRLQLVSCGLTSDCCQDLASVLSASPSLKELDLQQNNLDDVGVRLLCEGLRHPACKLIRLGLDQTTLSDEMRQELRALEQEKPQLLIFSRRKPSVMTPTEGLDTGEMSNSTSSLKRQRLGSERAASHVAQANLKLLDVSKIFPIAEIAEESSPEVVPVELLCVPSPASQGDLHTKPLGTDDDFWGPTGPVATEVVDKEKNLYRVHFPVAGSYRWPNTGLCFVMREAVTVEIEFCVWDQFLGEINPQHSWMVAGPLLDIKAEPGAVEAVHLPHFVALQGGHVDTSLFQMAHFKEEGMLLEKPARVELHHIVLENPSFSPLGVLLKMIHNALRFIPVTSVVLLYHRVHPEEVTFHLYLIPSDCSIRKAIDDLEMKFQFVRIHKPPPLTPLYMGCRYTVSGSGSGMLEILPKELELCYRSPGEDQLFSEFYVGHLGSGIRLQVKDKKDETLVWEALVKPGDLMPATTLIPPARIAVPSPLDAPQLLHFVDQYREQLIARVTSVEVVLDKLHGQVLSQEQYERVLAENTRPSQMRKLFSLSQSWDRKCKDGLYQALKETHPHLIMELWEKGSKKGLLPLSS

stoichiometry N (UPA per DPP9 dimer): 1
Substance: free UPA domain (from the SUMO-UPA construct) (domain or fragment)
